Assay results published in patent CN115073593A (SHANGHAI JUNSHI BIOSCIENCES CO LTD; JUNMENG BIOSCIENCES CO …, dated 2022).
Residue numbers refer to the chain shown, from its start.

B1: JS016-40 (antibody, V domains shown)
VH: EVQLVESGGGLVQPGGSLRLSCAASGFTVGWNYMSWVRQAPGKGLEWVSVIYPGGTTFYADSVKGRFTISRDNSMNTLFLQMNSLRAEDTAVYYCARVLPMYGDYLDYWGQGTLVTVSS
VL: DIVMTQSPSSLSASVGDRVTITCRASQNIERYLNWYQQKPGKAPKLLIYAASSLQSGVPSRFSGSGSGTDFTLTISSLQPEDFATYYCQQSASSTPEYTFGQGTKLEIKR
B2: JS016-77-YTE (antibody, V domains shown)
VH: B1 VH with T28V, G30Q, W31A, T56S
VL: B1 VL with E30L, R31P, A92S, S94A, T95V
B3: JS016-41-YTE (antibody, V domains shown)
VH: B1 VH with T28V, G30Q, W31A, T56S
VL: B1 VL

biological target: SARS-CoV-2 omicron突变株假病毒 (SARS-CoV-2 omicron variant); test: cell-based or functional assay

Binder | IC50(ng/ml), pseudovirus neutralisation, luciferase reporter
B1 | 24.6 ng/mL
B2 | 776 ng/mL
B3 | 17.6 ng/mL
